Reference: US20240101668A1 (WUGEN, published 2024)
Where a chain is given by its changes, count along the chain named.

T1: huCLL1-K244-Avi-Tev-His (human, UniProt Q5QGZ9 65-265)
T1 construct: extracellular domain
T1 sequence (looked up): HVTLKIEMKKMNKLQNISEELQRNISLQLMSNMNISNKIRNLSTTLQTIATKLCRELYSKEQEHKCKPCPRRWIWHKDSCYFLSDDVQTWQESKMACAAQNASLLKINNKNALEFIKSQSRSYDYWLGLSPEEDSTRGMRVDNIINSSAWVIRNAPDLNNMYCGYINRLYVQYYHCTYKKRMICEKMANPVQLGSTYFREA

T2: huCLL1-Q244-Avi-Tev-His (human, UniProt Q5QGZ9 65-265)
T2 construct: extracellular domain; also called CLL-1 K244Q
T2 sequence (looked up): T1 sequence (looked up) with K180Q

B1: Polypeptide No. 163 (scFv, V domains shown)
VH: QVQLVQSGAEVKKPGASVKVSCKASGYTFTSYYMQWVRQAPGQGLEWMGWMNPNSGNTGYAQKFQGRVTMTRDTSTSTVYMELSSLRSEDTAVYYCARALYGDYLDIWGQGTTVTVSS
VL: DIQMTQSPSSLSASVGDRVTITCRASQPIATWLAWYQQKPGKAPKLLIYDTSSLQSGVPSRFSGSGSGTDFTLTISSLQPEDFATYYCQQSYSLPLGFGQGTKVEIKR
notes: scFv
B2: Polypeptide No. 172 (scFv, V domains shown)
VH: B1 VH with T30S, S31D, M34V, Q35H, A99G, Y101T, Y104Q, L105F, I107Y, T113L
VL: not shown
notes: scFv
B3: Polypeptide No. 166 (scFv, V domains shown)
VH: QVQLVQSGAEVKKPGASVKVSCKASGYTFESYDMNWVRQAPGQGLEWMGWIDPHSGDTNFAQKFQGRVTMTRDTSTSTVYMELSSLRSEDTAVYYCARADYGGNADYWGQGTLVTVSS
VL: B1 VL with P28G, A30S, T31N, T51A, S53N, Q55E, S56T, L94T, L96Y, G97T
notes: scFv
B4: Polypeptide No. 162 (scFv, V domains shown)
VH: QVQLVQSGAEVKKPGASVKVSCKASGYTFTNYGISWVRQAPGQGLEWMGWINPNSGGTNFAQKFQGRVTMTRDTSTSTVYMELSSLRSEDTAVYYCARGTNGDELDYWGQGTLVTVSS
VL: not shown
notes: scFv
B5: Polypeptide No. 164 (scFv, V domains shown)
VH: QVQLVQSGAEVKKPGASVKVSCKASGYTFTAHYIHWVRQAPGQGLEWMGIINPNGGRTTYAQKFQGRVTMTRDTSTSTVYMELSSLRSEDTAVYYCARDSDFWSGYYSDYYYGMDVWGQGTTVTVSS
VL: DIQMTQSPSSLSASVGDRVTITCQASQDISNFLNWYQQKPGKAPKLLIYATSTLQSGVPSRFSGSGSGTDFTLTISSLQPEDFATYYCQQSYTTEWTFGQGTKVEIKR
notes: scFv
B6: Polypeptide No. 169 (scFv, V domains shown)
VH: QVQLVQSGAEVKKPGASVKVSCKASGYTFTNDYIHWVRQAPGQGLEWMGWMSPNSGKTGFAQKFQGRVTMTRDTSTSTVYMELSSLRSEDTAVYYCAKDNSSGWYFDLWGRGTLVTVSS
VL: DIQMTQSPSSLSASVGDRVTITCRVSQGISSYLAWYQQKPGKAPKLLIYDASNLETGVPSRFSGSGSGTDFTLTISSLQPEDFATYYCQQYDTLPITFGQGTRLEIKR
notes: scFv
B7: Polypeptide No. 178 (scFv, V domains shown)
VH: EVQLLESGGGLVQPGGSLRLSCAASGFTFSSSDMSWVRQAPGKGLEWVSSITGSGDGTYYADSVKGRFTISRDNSKNTLYLQMNSLRAEDTAVYYCIRDWEGIYQWGQGTLVTVSS
VL: B6 VL with A34N, Y91G, D92Y, T93S, L94T, I96W, R103K
notes: scFv
B8: Polypeptide No. 175 (scFv, V domains shown)
VH: QVQLVQSGAEVKKPGASVKVSCKASGYTFTSYDIHWVRQAPGQGLEWMGWINPNSGNTGYAQKFQGRVTMTRDTSTSTVYMELSSLRSEDTAVYYCAGGPDVDAAMVLDYWGQGTLVTVSS
VL: DIQMTQSPSSLSASVGDRVTITCQASQDISNYLNWYQQKPGKAPKLLIYDASNLETGVPSRFSGSGSGTDFTLTISSLQPEDFATYYCQQADGFPPTFGGGTKVEIKR
notes: scFv
B9: Polypeptide No. 179 (scFv, V domains shown)
VH: QVQLVQSGAEVKKPGASVKVSCKASGGTFSSYAISWVRQAPGQGLEWMGTINPSGGSTNYAQKFQGRVTMTRDTSTSTVYMELSSLRSEDTAVYYCAIGGYDSPYMDVWGKGTTVTVSS
VL: B8 VL with A91G, D92Y, G93S, F94P, P96W
notes: scFv
B10: Polypeptide No. 160 (scFv, V domains shown)
VH: QVQLVQSGAEVKKPGASVKVSCKASGGTFTSYDINWVRQAPGQGLEWMGWINPHSGGTNYAQKFQGRVTMTRDTSTSTVYMELSSLRSEDTAVYYCARLVGGDAFDIWGQGTMVTVSS
VL: DIQMTQSPSSLSASVGDRVTITCRASQSISSWLAWYQQKPGKAPKLLIYAASSLQGGVPSRFSGSGSGTDFTLTISSLQPEDFATYYCQQGYTTPLTFGPGTKVDIKR
notes: scFv
B11: Polypeptide No. 170 (scFv, V domains shown)
VH: QVQLVQSGAEVKKPGASVKVSCKASGGSFSNHGVSWVRQAPGQGLEWMGWMNPNSGDTGYAQKFQGRVTMTRDTSTSTVYMELSSLRSEDTAVYYCARPRKDDAFAIWGQGTLVTVSS
VL: B10 VL with A50E, S53T, G56S, G91S, T93S, P100Q, D105E
notes: scFv
B12: Polypeptide No. 174 (scFv, V domains shown)
VH: EVQLLESGGGLVQPGGSLRLSCAASGFIFRDHWMHWVRQAPGKGLEWVSSIDFSTGYIYYADSVKGRFTISRDNSKNTLYLQMNSLRAEDTAVYYCARDPWGDGDFDYWGRGTLVTVSS
VL: B10 VL with G56S, G91T, L96Y, P100Q, K103R, V104L, D105E
notes: scFv
B13: Polypeptide No. 171 (scFv, V domains shown)
VH: QVQLVQSGAEVKKPGASVKVSCKASGYTFTDYYIHWVRQAPGQGLEWMGMVDPNTGNINYAQTFQGRVTMTRDTSTSTVYMELSSLRSEDTAVYYCTSGSTNDAFDIWGQGTMVTVSS
VL: B1 VL with P28S, A30G, T31P, D50E, T51A, S53N, Q55A, L94T, G97T, Q100G
notes: scFv
B14: Polypeptide No. 168 (scFv, V domains shown)
VH: B4 VH with F60Y, G99V, T100R, N101S, G102D, E104F, L105F
VL: B1 VL with P28S, I29V, A30N, T31H, D50A, T51A, S53T, G97T, Q100G
notes: scFv
B15: Polypeptide No. 173 (scFv, V domains shown)
VH: QVQLVQSGAEVKKPGASVKVSCKASGYTFNGYNMHWVRQAPGQGLEWMGWINPNSGDTNYAQKFQGRVTMTRDTSTSTVYMELSSLRSEDTAVYYCASLDYGDYAVYWGQGTLVTVSS
VL: B1 VL with P28S, A30S, T51A, Q55R, L94T, L96I, G97T
notes: scFv
B16: Polypeptide No. 180 (scFv, V domains shown)
VH: QVQLVQSGAEVKKPGASVKVSCKASGYTFTSLDINWVRQAPGQGLEWMGSMNPRSGSTAYAQSFQGRVTMTRDTSTSTVYMELSSLRSEDTAVYYCAKSDYGDYLDYWGQGTLVTVSS
VL: B1 VL with P28S, A30S, T31P, T51A, S53N, L94T, G97T, V104L
notes: scFv
B17: Polypeptide No. 167 (scFv, V domains shown)
VH: B4 VH with N31S, G33Y, I34M, S35H, F60Y, N101T, E104D, L105F
VL: B10 VL with S28D, S31T, G56S, G91S, T93S, T94I, L96P
notes: scFv
B18: Polypeptide No. 161 (scFv, V domains shown)
VH: QVQLVQSGAEVKKPGASVKVSCKASGYTFTSYDINWVRQAPGQGLEWMGMINPNSGGTSYAQKFQGRVTMTRDTSTSTVYMELSSLRSEDTAVYYCARELLGESFDYWGQGTLVTVSS
VL: B10 VL with S28G, W32Y, A50G, S53I, G56S, G91S, T93S, P95S, L96F
notes: scFv
B19: Polypeptide No. 165 (scFv, V domains shown)
VH: B18 VH with M50W, I51M, G57N, S59G, E99L, L100S, L101S, E103Y, S104Y, F105P
VL: B1 VL with P28F, T31N, T51A, Q55E, L94T, G97T, Q100G
notes: scFv
B20: Polypeptide No. 181 (scFv, V domains shown)
VH: QVQLVQSGAEVKKPGASVKVSCKASGYTFTGYYMHWVRQAPGQGLEWMGVINPSGGSTSYAQKFQGRVTMTRDTSTSTVYMELSSLRSEDTAVYYCARGRTDDAFDIWGQGTLVTVSS
VL: B10 VL with S28T, S53T, G56S, G91S, T93S, T94I, P100G, V104L, D105E
notes: scFv
B21: Polypeptide No. 182 (scFv, V domains shown)
VH: QVQLVQSGAEVKKPGASVKVSCKASGYTFTDYYMHWVRQAPGQGLEWLGIINTGAGTTNYAPKFQGRVTMTRDTSTSTVYMELSSLRSEDTAVYYCARGLTSDHFDYWGQGTLVTVSS
VL: DIQMTQSPSSLSASVGDRVTITCRASQNIGPWLAWYQQKPGKAPKLLIYEAFTLQSGVPSRFSGSGSGTDFTLTISSLQPEDFATYYCQQSDNIPITFGQGTKVEIKR
notes: scFv
B22: Polypeptide No. 176 (scFv, V domains shown)
VH: QVQLVQSGAEVKKPGASVKVSCKASGGSFTSYYIHWVRQAPGQGLEWVGWMNPNSGNTGYAQKFQGRVTMTRDTSTSTVYMELSSLRSEDTAVYYCARGATDDAFDIWGQGTMVTVSS
VL: DIQMTQSPSSLSASVGDRVTITCRASQNIDTWLAWYQQKPGKAPKLLIYDGSNLEAGVPSRFSGSGSGTDFTLTISSLQPEDFATYYCQQSYNTPITFGQGTRLEIKR
notes: scFv

What follows are binders tested against T1, huCLL1-K244-Avi-Tev-His (assay: BLI).

Row | binding result | Binder
1 | binds | B1
2 | binds | B2
3 | binds | B3
4 | binds | B4
5 | binds | B5
6 | binds | B6
7 | binds | B7
8 | binds | B8
9 | binds | B9
10 | binds | B10
11 | binds | B11
12 | binds | B12
13 | binds | B13
14 | binds | B14
15 | binds | B15
16 | binds | B16
17 | binds | B17
18 | binds | B18
19 | binds | B19
20 | binds | B20
21 | binds | B21
22 | binds | B22

The binders below were run against T2, huCLL1-Q244-Avi-Tev-His (assay: BLI).

Row | binding result | Binder
23 | binds | B1
24 | binds | B2
25 | binds | B3
26 | binds | B4
27 | binds | B5
28 | binds | B6
29 | binds | B7
30 | binds | B8
31 | binds | B9
32 | binds | B10
33 | binds | B11
34 | binds | B12
35 | binds | B13
36 | binds | B14
37 | binds | B15
38 | binds | B16
39 | binds | B17
40 | binds | B18
41 | binds | B19
42 | binds | B20
43 | binds | B21
44 | binds | B22
